Values of other authors as cited in article PMC2921030.

Biological target: 4E-BP1 peptide (Homo sapiens) (UniProt Q13541)
Chain of UniProt Q13541 (Q13541 2-118): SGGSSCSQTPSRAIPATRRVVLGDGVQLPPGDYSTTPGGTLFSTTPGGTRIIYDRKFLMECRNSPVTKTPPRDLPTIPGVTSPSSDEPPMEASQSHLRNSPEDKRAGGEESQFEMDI

Kd: < 50 nM
Substance: eIF4E (from UniProt P06730)
